To fix the notation:
T1: FGFR1-Fc (Z03223, Genscript) (UniProt P11362 22-376)
T1 construct: fibroblast growth factor receptor 1 part of a bought Fc fusion; also called FGFR1 homodimer; FGFR1/FGFR1; source: bought: Genscript (Z03223)
T1 sequence (looked up): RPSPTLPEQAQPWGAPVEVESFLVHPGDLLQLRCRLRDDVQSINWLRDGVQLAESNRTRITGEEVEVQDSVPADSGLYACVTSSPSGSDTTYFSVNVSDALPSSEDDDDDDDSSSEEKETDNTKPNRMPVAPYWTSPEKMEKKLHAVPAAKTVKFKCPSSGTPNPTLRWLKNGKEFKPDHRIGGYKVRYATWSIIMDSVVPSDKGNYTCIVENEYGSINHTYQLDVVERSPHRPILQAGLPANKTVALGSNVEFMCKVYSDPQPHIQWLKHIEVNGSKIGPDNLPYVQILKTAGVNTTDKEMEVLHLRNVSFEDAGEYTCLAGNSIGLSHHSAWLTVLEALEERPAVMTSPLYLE

B1: FGFR1 DI (domain or fragment)
chain: PTLPEQAQPWGAPVEVESFLVHPGDLLQLRCRLRDDVQSINWLRDGVQLAESNRTRITGEEVEVQDSVPADSGLYACVTSSPSGSDTTYFSVNVS
B2: Human VEGF-B167 (ligand, UniProt P49765-2 22-188, looked up)
chain: PVSQPDAPGHQRKVVSWIDVYTRATCQPREVVVPLTVELMGTVAKQLVPSCVTVQRCGGCCPDDGLECVPTGQHQVRMQILMIRYPSSQLGEMSLEEHSQCECRPKKKDSAVKPDSPRPLCPRCTQHHQRPDPRTCRCRCRRRSFLRCQGRGLELNPDTCRCRKLRR
notes: UniProt P49765 is printed for the VEGF-B167 peptides; Bought recombinant protein; source: bought: PeproTech (100-20B)
B3: FGFR1 ECD-L-VEGFR1 ECD (other)
chain: RPSPTLPEQAQPWGAPVEVESFLVHPGDLLQLRCRLRDDVQSINWLRDGVQLAESNRTRITGEEVEVQDSVPADSGLYACVTSSPSGSDTTYFSVNVSDALPSSEDDDDDDDSSSEEKETDNTKPNRMPVAPYWTSPEKMEKKLHAVPAAKTVKFKCPSSGTPNPTLRWLKNGKEFKPDHRIGGYKVRYATWSIIMDSVVPSDKGNYTCIVENEYGSINHTYQLDVVERSPHRPILQAGLPANKTVALGSNVEFMCKVYSDPQPHIQWLKHIEVNGSKIGPDNLPYVQILKTAGVNTTDKEMEVLHLRNVSFEDAGEYTCLAGNSIGLSHHSAWLTVLEALEERPAVMTSPLYLESKLKDPELSLKGTQHIMQAGQTLHLQCRGEAAHKWSLPEMVSKESERLSITKSACGRNGKQFCSTLTLNTAQANHTGFYSCKYLAVPTSKKKETESAIYIFISDTGRPFVEMYSEIPEIIHMTEGRELVIPCRVTSPNITVTLKKFPLDTLIPDGKRIIWDSRKGFIISNATYKEIGLLTCEATVNGHLYKTNYLTHRQTNTIIDVQISTPRPVKLLRGHTLVLNCTATTPLNTRVQMTWSYPDEKNKRASVRRRIDQSNSHANIFYSVLTIDKMQNKDKGLYTCRVRSGPSFKSVNTSVHIYDKAFITVKHRKQQVLETVAGKRSYRLSMKVKAFPSPEVVWLKDGLPATEKSARYLTRGYSLIIKDVTEEDAGNYTILLSIKQSNVFKNLTATLIVNVKPQIYEKAVSSFPDPALYPLGSRQILTCTAYGIPQPTIKWFWHPCNHNHSEARCDFCSNNEESFILDADSNMGNRIESITQRMAIIEGKNKMASTLVVADSRISGIYICIASNKVGTVGRNISFYITDVPNGFHVNLEKMPTEGEDLKLSCTVNKFLYRDVTWILLRTVNNRTMHYSISKQKMAITKEHSITLNLTIMNVSLQDSGTYACRARNVYTGEEILQKKEITIRDQEAPYLLRNLSDHTVAISSSTTLDCHANGVPEPQITWFKNNHKIQQEPGIILGPGSSTLFIERVTEEDEGVYHCKATNQKGSVESSAYLTVQGTSDKSNLE
B4: VEGFR1 ECD-L-FGFR1 ECD (other)
chain: SKLKDPELSLKGTQHIMQAGQTLHLQCRGEAAHKWSLPEMVSKESERLSITKSACGRNGKQFCSTLTLNTAQANHTGFYSCKYLAVPTSKKKETESAIYIFISDTGRPFVEMYSEIPEIIHMTEGRELVIPCRVTSPNITVTLKKFPLDTLIPDGKRIIWDSRKGFIISNATYKEIGLLTCEATVNGHLYKTNYLTHRQTNTIIDVQISTPRPVKLLRGHTLVLNCTATTPLNTRVQMTWSYPDEKNKRASVRRRIDQSNSHANIFYSVLTIDKMQNKDKGLYTCRVRSGPSFKSVNTSVHIYDKAFITVKHRKQQVLETVAGKRSYRLSMKVKAFPSPEVVWLKDGLPATEKSARYLTRGYSLIIKDVTEEDAGNYTILLSIKQSNVFKNLTATLIVNVKPQIYEKAVSSFPDPALYPLGSRQILTCTAYGIPQPTIKWFWHPCNHNHSEARCDFCSNNEESFILDADSNMGNRIESITQRMAIIEGKNKMASTLVVADSRISGIYICIASNKVGTVGRNISFYITDVPNGFHVNLEKMPTEGEDLKLSCTVNKFLYRDVTWILLRTVNNRTMHYSISKQKMAITKEHSITLNLTIMNVSLQDSGTYACRARNVYTGEEILQKKEITIRDQEAPYLLRNLSDHTVAISSSTTLDCHANGVPEPQITWFKNNHKIQQEPGIILGPGSSTLFIERVTEEDEGVYHCKATNQKGSVESSAYLTVQGTSDKSNLERPSPTLPEQAQPWGAPVEVESFLVHPGDLLQLRCRLRDDVQSINWLRDGVQLAESNRTRITGEEVEVQDSVPADSGLYACVTSSPSGSDTTYFSVNVSDALPSSEDDDDDDDSSSEEKETDNTKPNRMPVAPYWTSPEKMEKKLHAVPAAKTVKFKCPSSGTPNPTLRWLKNGKEFKPDHRIGGYKVRYATWSIIMDSVVPSDKGNYTCIVENEYGSINHTYQLDVVERSPHRPILQAGLPANKTVALGSNVEFMCKVYSDPQPHIQWLKHIEVNGSKIGPDNLPYVQILKTAGVNTTDKEMEVLHLRNVSFEDAGEYTCLAGNSIGLSHHSAWLTVLEALEERPAVMTSPLYLE

Test [1] deals with FGF2 (BFF-H4117, Acro Biosystems) (UniProt P09038). Kind of test: SPR; VEGF-B immobilised at 3820 RU on CM5 (the FGF2 surface is not described); FGFR1 DI (18.75-600 nM), DII (3.125-100 nM), DIII (12.5-400 nM), DII-III (25-800 nM) flowed at 10 µl/min. In general terms: Surface plasmon resonance follows binding to a sensor surface in real time, without labels.
For test [2], the target named is B2. The test is described as above.
Test [3] has as its target T2, FGF2 (BFF-H4117, Acro Biosystems) (UniProt P09038 143-288).
T2 construct: fibroblast growth factor 2 (basic FGF); Immobilised on the CM5 chip for SPR; also called basic FGF; fibroblast growth factor 2; source: bought: Acro Biosystems (BFF-H4117)
The description is as above. To be noted: both partners purified.

The target of test [4] is T1, FGFR1-Fc (Z03223, Genscript). Put plainly: SPR; BIAcore 8000; VEGF-B, FGF2 or PlGF immobilised (5389, 1860, 4700 RU) on CM5 by amine coupling; FGFR1-Fc flowed at 12.5-400 nM, 30 µl/min; 1:1 binding model, KD = kd/ka. To be noted: both partners purified.
Test [5] has as its target B2. Kind of test: SPR; VEGF-B immobilised at 3820 RU on CM5 (the VEGF-C surface is not described); heterodimer proteins flowed at 1.875-60 nM, 10 µl/min. Particulars: both partners purified.

FGF2 (BFF-H4117, Acro Biosystems) (UniProt P09038), sequence (P09038 143-288): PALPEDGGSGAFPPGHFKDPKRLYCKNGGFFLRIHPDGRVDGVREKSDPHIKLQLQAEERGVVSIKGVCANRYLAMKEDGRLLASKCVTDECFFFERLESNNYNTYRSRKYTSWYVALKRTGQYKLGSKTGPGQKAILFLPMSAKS
T2 sequence (P09038 143-288): as above

For FGFR1 DII-III (domain or fragment), the Kd (in general, the concentration at which binding is half-saturated) in test [1] came to 63 nM; in test [2], 49 nM. On the same counts, the results for FGFR1 DII (domain or fragment) are 71 nM and 101 nM. On the same counts, the results for FGFR1 DIII (domain or fragment) are 43 nM and 64 nM. For B1, the Kd is 245 nM in test [3] and 532 nM in test [2] (both partners purified). In the case of B2, the Kd in test [4] came to 17 nM. B3 returned a Kd in test [5] of 3.7 nM.

Take B4: binding in test [5] was put at a Kd of 1.4 nM.

(Values after article PMC10435562, “VEGF-B prevents excessive angiogenesis by inhibiting FGF2/FGFR1 pathway” (Signal Transduction and Targeted Therapy, 2023).)
